Series [1] has as its target T1, 1-phosphatidylinositol 4,5-bisphosphate phosphodiesterase beta-1 (Homo sapiens) (UniProt Q9NQ66).
T1 sequence (whole entry): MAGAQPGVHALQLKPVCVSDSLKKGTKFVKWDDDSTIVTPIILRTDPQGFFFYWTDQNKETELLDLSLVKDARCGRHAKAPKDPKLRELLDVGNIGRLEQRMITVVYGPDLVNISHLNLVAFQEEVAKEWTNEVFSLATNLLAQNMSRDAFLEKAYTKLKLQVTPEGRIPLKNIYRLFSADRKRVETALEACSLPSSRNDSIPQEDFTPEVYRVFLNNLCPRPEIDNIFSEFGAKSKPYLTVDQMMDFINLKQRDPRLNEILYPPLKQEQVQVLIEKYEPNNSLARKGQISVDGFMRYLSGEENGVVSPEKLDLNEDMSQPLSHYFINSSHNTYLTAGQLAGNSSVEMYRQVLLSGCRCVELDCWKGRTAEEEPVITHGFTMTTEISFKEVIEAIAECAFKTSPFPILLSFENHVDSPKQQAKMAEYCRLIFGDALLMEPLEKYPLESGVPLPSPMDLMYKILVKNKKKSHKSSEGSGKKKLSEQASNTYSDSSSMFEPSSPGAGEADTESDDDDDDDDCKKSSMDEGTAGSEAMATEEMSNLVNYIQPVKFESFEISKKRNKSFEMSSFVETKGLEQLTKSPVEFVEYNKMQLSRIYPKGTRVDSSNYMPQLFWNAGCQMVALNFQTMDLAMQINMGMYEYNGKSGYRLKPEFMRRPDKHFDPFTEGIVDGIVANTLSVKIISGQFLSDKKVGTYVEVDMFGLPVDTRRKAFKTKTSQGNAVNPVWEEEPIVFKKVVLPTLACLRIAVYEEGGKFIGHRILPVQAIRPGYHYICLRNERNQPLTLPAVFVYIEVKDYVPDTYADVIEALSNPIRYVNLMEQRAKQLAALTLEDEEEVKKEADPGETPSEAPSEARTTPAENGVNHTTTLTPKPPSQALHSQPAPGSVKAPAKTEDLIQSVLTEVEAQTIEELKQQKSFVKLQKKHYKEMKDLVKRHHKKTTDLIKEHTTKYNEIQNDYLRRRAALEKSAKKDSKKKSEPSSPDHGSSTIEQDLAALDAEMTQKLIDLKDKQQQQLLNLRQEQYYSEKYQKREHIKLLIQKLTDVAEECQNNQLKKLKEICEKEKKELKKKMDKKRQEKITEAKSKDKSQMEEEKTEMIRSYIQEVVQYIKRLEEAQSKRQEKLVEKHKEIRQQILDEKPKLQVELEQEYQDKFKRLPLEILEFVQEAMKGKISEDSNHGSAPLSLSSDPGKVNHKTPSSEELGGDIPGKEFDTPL
The series is described as follows: Ratio of the kinetic constant kcat to that of KM.

For series [2], the target named is T1, 1-phosphatidylinositol 4,5-bisphosphate phosphodiesterase beta-1 (Homo sapiens). The series is described as follows: Kinetic constant kcat against human phosphoinositide-specific phospholipase C.
Substrate in series [3]: O=[N+]([O-])c1ccc(OP(=O)(O)O[C@@H]2[C@H](O)[C@H](O)[C@@H](OP(=O)(O)O)[C@H](OP(=O)(O)O)[C@H]2O)cc1
Put plainly: Michaelis-Menten constant of the compound (D-isomer) was determined against human phosphoinositide-specific phospholipase C.

Substrate in series [4]: O=[N+]([O-])c1ccc(OP(=O)(O)O[C@@H]2[C@H](O)[C@H](O)[C@@H](OP(=O)(O)O)[C@H](OP(=O)(O)O)[C@H]2O)cc1
Put plainly: Michaelis-Menten constant against human phosphoinositide-specific phospholipase C.

Substrate in series [5]: O=[N+]([O-])c1ccc(OP(=O)(O)O[C@@H]2[C@H](O)[C@H](O)[C@@H](OP(=O)(O)O)[C@H](OP(=O)(O)O)[C@H]2O)cc1
The series is described as follows: Kinetic constant Vmax against human phosphoinositide-specific phospholipase C.

Consider `O=[N+]([O-])c1ccc(OP(=O)(O)O[C@@H]2[C@H](O)[C@H](O)[C@@H](OP(=O)(O)O)[C@H](OP(=O)(O)O)[C@H]2O)cc1` (racemic), for which the Ratio in series [1] was 83000. The k cat in series [2] came out at 112 s⁻¹.

B1: 1-phosphatidylinositol 4,5-bisphosphate phosphodiesterase beta-1 (Homo sapiens), Q9NQ66 (protein)
chain: MAGAQPGVHALQLKPVCVSDSLKKGTKFVKWDDDSTIVTPIILRTDPQGFFFYWTDQNKETELLDLSLVKDARCGRHAKAPKDPKLRELLDVGNIGRLEQRMITVVYGPDLVNISHLNLVAFQEEVAKEWTNEVFSLATNLLAQNMSRDAFLEKAYTKLKLQVTPEGRIPLKNIYRLFSADRKRVETALEACSLPSSRNDSIPQEDFTPEVYRVFLNNLCPRPEIDNIFSEFGAKSKPYLTVDQMMDFINLKQRDPRLNEILYPPLKQEQVQVLIEKYEPNNSLARKGQISVDGFMRYLSGEENGVVSPEKLDLNEDMSQPLSHYFINSSHNTYLTAGQLAGNSSVEMYRQVLLSGCRCVELDCWKGRTAEEEPVITHGFTMTTEISFKEVIEAIAECAFKTSPFPILLSFENHVDSPKQQAKMAEYCRLIFGDALLMEPLEKYPLESGVPLPSPMDLMYKILVKNKKKSHKSSEGSGKKKLSEQASNTYSDSSSMFEPSSPGAGEADTESDDDDDDDDCKKSSMDEGTAGSEAMATEEMSNLVNYIQPVKFESFEISKKRNKSFEMSSFVETKGLEQLTKSPVEFVEYNKMQLSRIYPKGTRVDSSNYMPQLFWNAGCQMVALNFQTMDLAMQINMGMYEYNGKSGYRLKPEFMRRPDKHFDPFTEGIVDGIVANTLSVKIISGQFLSDKKVGTYVEVDMFGLPVDTRRKAFKTKTSQGNAVNPVWEEEPIVFKKVVLPTLACLRIAVYEEGGKFIGHRILPVQAIRPGYHYICLRNERNQPLTLPAVFVYIEVKDYVPDTYADVIEALSNPIRYVNLMEQRAKQLAALTLEDEEEVKKEADPGETPSEAPSEARTTPAENGVNHTTTLTPKPPSQALHSQPAPGSVKAPAKTEDLIQSVLTEVEAQTIEELKQQKSFVKLQKKHYKEMKDLVKRHHKKTTDLIKEHTTKYNEIQNDYLRRRAALEKSAKKDSKKKSEPSSPDHGSSTIEQDLAALDAEMTQKLIDLKDKQQQQLLNLRQEQYYSEKYQKREHIKLLIQKLTDVAEECQNNQLKKLKEICEKEKKELKKKMDKKRQEKITEAKSKDKSQMEEEKTEMIRSYIQEVVQYIKRLEEAQSKRQEKLVEKHKEIRQQILDEKPKLQVELEQEYQDKFKRLPLEILEFVQEAMKGKISEDSNHGSAPLSLSSDPGKVNHKTPSSEELGGDIPGKEFDTPL
On to B1, for which the Km stood at 1350 µM in series [3] and 2700 µM in series [4]. In addition, the Vmax in series [5] is 78.5 µM/min/mg.

The values above are taken from ChEMBL document CHEMBL1130356, “A CHROMOGENIC SUBSTRATE FOR THE CONTINUOUS ASSAY OF MAMMALIAN PHOSPHOINOSITIDE-SPECIFIC PHOSPHOLIPASE C” (Bioorg Med Chem Lett, 1997).
